This note sets out measurements from paper PMC6358617.

The data set concerns rituximab (MabThera, lot N7075B10). Briefly: SAW. Particulars: 20 mM Tris-HCl pH 7.6, 100 mM NaCl, 2 mM MgCl2, 5 mM KCl, 1 mM CaCl2, 0.02% Tween 20; SAW at 22 C (protein A chip-captured rituximab); ELASA at room ….

One may read the Kd as the equilibrium constant for the complex coming apart. “CGTGGGTGGGGATTGTGGTTTGGCTGATGGGGTGCTGGTT [RA6]”: the Kd came out at 887 nM.

In turn, “TATACTGGGCCGTGCGTGACTTTTCCGTGCTGCATGAGAG [RA4]” displayed a dissociation constant Kd of 354 nM.

“TGGGGGTAGGATTGTGGTTGGCTTTAATTGCTTTGGTGGT [RA2]” had a Kd of 394 nM. This Kd and that of the sequence before are within 1.5-fold of each other.

“GGGGGTGAGGATTGTGGTTTGGCTTATTGGTTTGCTGGTG [RA3]” showed an equilibrium dissociation constant (Kd) of 713 nM. Against the preceding sequence, the Kd is about 1.8-fold higher.

For the sequence “CGGCGGGGGGAGGATTGTGGTCTGCTCATGGCTGCCGTTT [RA1]”, the Kd came to 683 nM.
